Our source for the Kd values is publication PMC3159451.

Targets include cMBD2 MBD WT (Gallus gallus (chicken), UniProt Q5EFL0 2-71); cMBD2 MBD R46C (Gallus gallus (chicken), UniProt Q5EFL0 2-71, R45C); cMBD2 MBD K32A (Gallus gallus (chicken), UniProt Q5EFL0 2-71, K31A); cMBD2 MBD R67M (Gallus gallus (chicken), UniProt Q5EFL0 2-71, R66M); cMBD2 MBD Y36F (Gallus gallus (chicken), UniProt Q5EFL0 2-71, Y35F); cMBD2 MBD K19W (Gallus gallus (chicken), UniProt Q5EFL0 2-71, K18W).

Holding throughout (test): SPR
(In general: Surface plasmon resonance follows binding to a sensor surface in real time, without labels.)

B1: Gua107Thy (dsDNA)
DNA 1: GGATCGTCTC
DNA 2: GAGACGATCC
modifications: 5-methyl-C at position 5 of both strands
In the data set with cMBD2 MBD WT, B1 showed an equilibrium dissociation constant (Kd) of 29 ± 2 µM.

B2: Inverted (dsDNA)
DNA 1: GGACCGACTC
DNA 2: GAGTCGGTCC
modifications: 5-methyl-C at position 5 of both strands
Molecule B2 returned a Kd in the data set with cMBD2 MBD WT of 2.3 ± 0.5 µM.

B3: rho-globin mCpG WT 10 bp (dsDNA)
DNA 1: GGATCGGCTC
DNA 2: GAGCCGATCC
modifications: 5-methyl-C at position 5 of both strands (mC105, mC115)
Take B3: the Kd with cMBD2 MBD WT was 2.1 ± 0.1 µM; with cMBD2 MBD R46C it was 590 ± 71 µM; with cMBD2 MBD K32A, 291 ± 19 µM; in the data set with cMBD2 MBD R67M, 197 ± 17 µM; in the data set with cMBD2 MBD Y36F, 109 ± 3 µM; with cMBD2 MBD K19W, 135 ± 17 µM.

B4: Thy104Gua (dsDNA)
DNA 1: GGAGCGGCTC
DNA 2: GAGCCGCTCC
modifications: 5-methyl-C at position 5 of both strands
In turn, B4 returned an equilibrium dissociation constant (Kd) in the data set with cMBD2 MBD WT of 2.2 ± 0.1 µM.

The Kd is the free concentration of one partner at which half of the binding sites on the other are occupied at equilibrium, for simple one-to-one binding. A low value points to tighter binding.
